Measured values as given in patent publication US20120321591A1 (COVX TECHNOLOGIES IRELAND, published 2012).
Bridges are numbered along the chain shown (N, C = ends). Where no end group is shown, it is not given here. [ ]: non-standard residue; d: D form. 0P linker = not defined here; Nle = CCCC[C@H](N)C(=O)O

T1: human angiopoietin-2 protein (human, UniProt O15123 19-496)
T1 construct: also called Ang-2; Ang2
T1 sequence (looked up): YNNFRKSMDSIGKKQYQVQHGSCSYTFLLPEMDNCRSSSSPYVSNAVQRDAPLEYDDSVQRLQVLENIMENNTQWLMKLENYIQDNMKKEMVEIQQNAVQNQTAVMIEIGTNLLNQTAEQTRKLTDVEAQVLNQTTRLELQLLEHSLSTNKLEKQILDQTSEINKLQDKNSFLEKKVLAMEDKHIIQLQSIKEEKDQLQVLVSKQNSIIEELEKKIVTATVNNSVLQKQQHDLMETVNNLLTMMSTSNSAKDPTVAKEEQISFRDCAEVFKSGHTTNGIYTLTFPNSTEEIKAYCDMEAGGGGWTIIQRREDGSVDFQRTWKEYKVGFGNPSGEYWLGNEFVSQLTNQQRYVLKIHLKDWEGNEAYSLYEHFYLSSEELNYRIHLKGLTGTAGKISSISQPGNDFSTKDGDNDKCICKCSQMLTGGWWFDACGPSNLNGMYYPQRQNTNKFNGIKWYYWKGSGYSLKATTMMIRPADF

B1: Compound 4059, peptide plus linker (T) (peptide)
peptide: QRYQPLDELDKTLYDQFMLQQG-NH2
modifications: not fully specified (residue 11, N-terminus); printed as QRY QPL DEL DK(0P)T LYD QFM LQQ G; also: N-terminal acyl cap
notes: also called 4059 T
B2: Compound 4027, peptide plus linker (T) (peptide)
peptide: QKYQPLDELDK(0P linker)TLYDQFMLQQG-NH2
modifications: reading uncertain; also: N-terminal acyl cap, printed as QKY QPL DEL DK(0P)T LYD QFM LQQ G
notes: also called 4027 T
B3: Compound 4060, peptide plus linker (T) (peptide)
peptide: QHYQPLDELDKTLYDQFMLQQG-NH2
modifications: not fully specified (residue 11, N-terminus); printed as QHY QPL DEL DK(0P)T LYD QFM LQQ G; also: N-terminal acyl cap
notes: also called 4060 T
B4: Compound 4033, peptide plus linker (T) (peptide)
peptide: QK(Ac)YQPLDEK(0P linker)DETLYDQFMLQQG
modifications: reading uncertain; also: N-terminal acyl cap, C-terminal amino cap, printed as Q(Kac)Y QPL DEK(0P) DET LYD QFM LQQ G
notes: also called 4033 T

Target: T2, recombinant human VEGF165 (human, UniProt P15692-4 27-191)
T2 construct: also called rhVEGF165
Test: competition ELISA: VEGF165 binding to coated VEGFR2/Fc

T2 sequence (P15692 other isoform, or with tags, fused parts or gaps limits assumed): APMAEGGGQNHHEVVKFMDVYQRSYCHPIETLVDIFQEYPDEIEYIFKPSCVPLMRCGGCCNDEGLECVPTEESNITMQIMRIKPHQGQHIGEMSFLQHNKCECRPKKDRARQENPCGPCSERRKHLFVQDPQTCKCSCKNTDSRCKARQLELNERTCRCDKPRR

Binder	IC50
Ac-VEPNCDIHVMWVWECFERLYGG-NH2 (disulfide 5-15 (inferred)) [[VEGF-Peptide] SEQ ID NO:52]	0.0323 µM
Ac-VEPNCDIHVMWVWECFERLYGL-NH2 (disulfide 5-15 (inferred)) [[VEGF-Peptide] SEQ ID NO:72]	0.0048 µM
Ac-VEPNCDIHVMWVWECFERLLK(Ac)-NH2 (disulfide 5-15) [[VEGF-Peptide] SEQ ID NO:68]	0.01 µM
Ac-VEPNCDIHVMWVWECFERLMK-NH2 (disulfide 5-15 (inferred)) [[VEGF-Peptide] SEQ ID NO:62]	0.025 µM
Ac-VEPNCDIHVMWVWECFERLYG-NH2 (disulfide 5-15 (inferred)) [[VEGF-Peptide] SEQ ID NO:47]	0.0433 µM
Ac-VEPNCDIHVMWVWECFERLLK-NH2 (disulfide 5-15 (inferred)) [[VEGF-Peptide] SEQ ID NO:67]	0.0101 µM
Ac-VEPNCDIHVMWVWECFERLYK-NH2 (disulfide 5-15 (inferred)) [[VEGF-Peptide] SEQ ID NO:58]	0.0251 µM
Ac-VEPNCDIHVMWVWECFERLIK-NH2 (disulfide 5-15 (inferred)) [[VEGF-Peptide] SEQ ID NO:57]	0.0254 µM
Ac-VEPNCDIHVMWVWVCFERLMK-NH2 (disulfide 5-15 (inferred)) [[VEGF-Peptide] SEQ ID NO:38]	0.0926 µM
Ac-VEPNCDIHVMWVWECFERLMR-NH2 (disulfide 5-15 (inferred)) [[VEGF-Peptide] SEQ ID NO:49]	0.0345 µM
Ac-VEPNCDIHVMWVWECFERLVK-NH2 (disulfide 5-15 (inferred)) [[VEGF-Peptide] SEQ ID NO:48]	0.0424 µM
Ac-VEPNCDIHVMWVWECFERL-NH2 (disulfide 5-15 (inferred)) [[VEGF-Peptide] SEQ ID NO:64]	0.024 µM
Ac-VEPNCDIHVMWVWECFERLYGIF-NH2 (disulfide 5-15 (inferred)) [[VEGF-Peptide] SEQ ID NO:40]	0.0783 µM
Ac-VEPNCDIHVMWVWECFERLYGGG-NH2 (disulfide 5-15 (inferred)) [[VEGF-Peptide] SEQ ID NO:61]	0.0236 µM
Ac-VEPNCDIHVMWVWECFERLYGPL-NH2 (disulfide 5-15 (inferred)) [[VEGF-Peptide] SEQ ID NO:76]	0.0023 µM
Ac-VEPNCDIHVMWVWECFERLMGLT-NH2 (disulfide 5-15 (inferred)) [[VEGF-Peptide] SEQ ID NO:59]	0.025 µM
Ac-VEPNCDIHVMWVWECFERLYGPW-NH2 (disulfide 5-15 (inferred)) [[VEGF-Peptide] SEQ ID NO:66]	0.0187 µM
Ac-VEPNCDIHVMWVWECFERLYGEF-NH2 (disulfide 5-15 (inferred)) [[VEGF-Peptide] SEQ ID NO:70]	0.0093 µM

Binder	IC50
Ac-VEPNCDIHVMWVWECFERLYGPF-NH2 (disulfide 5-15 (inferred)) [[VEGF-Peptide] SEQ ID NO:77]	0.0018 µM
Ac-VEPNCDIHVMWVWECFERLYGGF-NH2 (disulfide 5-15 (inferred)) [[VEGF-Peptide] SEQ ID NO:56]	0.0262 µM
Ac-VEPNCDIHVMWVWECFERLYGLE-NH2 (disulfide 5-15 (inferred)) [[VEGF-Peptide] SEQ ID NO:75]	0.003 µM
Ac-VEPNCDIHVMWVWECFERLYGVQ-NH2 (disulfide 5-15 (inferred)) [[VEGF-Peptide] SEQ ID NO:74]	0.004 µM
Ac-VEPNCDIHVMWVWECFERLYGWG-NH2 (disulfide 5-15 (inferred)) [[VEGF-Peptide] SEQ ID NO:42]	0.0682 µM
Ac-VEPNCDIHVMWVWECFERLSGGG-NH2 (disulfide 5-15 (inferred)) [[VEGF-Peptide] SEQ ID NO:45]	0.051 µM
Ac-VEPNCDIHVMWVWECFERLMRLT-NH2 (disulfide 5-15 (inferred)) [[VEGF-Peptide] SEQ ID NO:46]	0.0441 µM
Ac-VEPNCDIHVMWVWECFERLMKEL-NH2 (disulfide 5-15 (inferred)) [[VEGF-Peptide] SEQ ID NO:65]	0.018 µM
Ac-VEPNCDIHVMWVWECFERLYGLS-NH2 (disulfide 5-15 (inferred)) [[VEGF-Peptide] SEQ ID NO:71]	0.0054 µM
Ac-VEPNCDIHVMWVWVCFERLYGGG-NH2 (disulfide 5-15 (inferred)) [[VEGF-Peptide] SEQ ID NO:43]	0.066 µM
Ac-VEPNCDIHVMWVWECFERLYGLY-NH2 (disulfide 5-15 (inferred)) [[VEGF-Peptide] SEQ ID NO:44]	0.0546 µM
Ac-VEPNCDIHVMWVWECFERLYGIL-NH2 (disulfide 5-15 (inferred)) [[VEGF-Peptide] SEQ ID NO:50]	0.0344 µM
Ac-VEPNCDIHVMWVWECFERLMREL-NH2 (disulfide 5-15 (inferred)) [[VEGF-Peptide] SEQ ID NO:63]	0.024 µM
Ac-VEPNCDIHVMWVWECFERLFKEA-NH2 (disulfide 5-15 (inferred)) [[VEGF-Peptide] SEQ ID NO:53]	0.0314 µM
Ac-VEPNCDIHVMWVWECFERL[dL]K(Ac)-NH2 (disulfide 5-15) [[VEGF-Peptide] SEQ ID NO:60]	0.025 µM
Ac-VEPNCDIHVMWVWECFERLY-NH2 (disulfide 5-15 (inferred)) [[VEGF-Peptide] SEQ ID NO:41]	0.0699 µM
Ac-VEPNCDIHVMWVWECFERL[Nle]K-NH2 (disulfide 5-15) [[VEGF-Peptide] SEQ ID NO:54]	0.0286 µM

Target: T1, human angiopoietin-2 protein
Test: competitive ELISA: Tie-2-Fc binding to coated Ang-2; T
Experimental: Plates were washed three times with washing buffer (0.1% Tween 20, PBS, pH 7.4) and blocked with Superblock (Scytek), […] at room temperature (“RT”) for 1 hour. […] Plates were washed 3 times with washing buffer. […] Following incubation, 50 ul of 1:5,000 dilution of goat anti-mouse IgG-HRP in Superblock was then added and incubated at RT for one hour. After washing 3 times, […] was added, and incubated for 3-5 minutes. Color development was monitored and stopped with 25 μl of 2 M H₂SO₄. OD450 nm with a correction wavelength of 540 nm was measured.

Binder	IC50
QKYQPLDELDKTLYDQFMLQQG-NH2 (not fully specified (N-terminus), also called 4026 T) [Compound 4026, peptide plus linker (T)]	0.0323 µM
B1	0.177 µM
B2	0.029 µM
B3	0.214 µM
QXYQPLDELDKTLYDQFMLQQG (N-terminal acyl cap; C-terminal amino cap; Kac 2; 4P linker on K11, also called 4024 T) [Compound 4024, peptide plus linker (T)]	0.207 µM
B4	0.37 µM
QXYQPLDELDKTLFDQFMLQQG (N-terminal acyl cap; C-terminal amino cap; Kac 2; 0P linker on K11, also called 4044 T) [Compound 4044, peptide plus linker (T)]	0.0369 µM
QXYQPLDELDKTIYDQFMLQQG (N-terminal acyl cap; C-terminal amino cap; Kac 2; 0P linker on K11, also called 4036 T) [Compound 4036, peptide plus linker (T)]	2.41 µM
QXYQPLDEIDKTLYDQFMLQQG (N-terminal acyl cap; C-terminal amino cap; Kac 2; 0P linker on K11, also called 4037 T) [Compound 4037, peptide plus linker (T)]	1.27 µM
